Laboratory results published in PMC3785425.

What was measured:
[1] = target: NKTT120 (human (humanized antibody)); assay: SPR; Biacore 3000; NKTT120 immobilised on the chip; FcγRI, FcγRIIIa or C1q as analyte at six different concentrations; BiaEvaluation software
[2] = target: NKTT120 (human (humanized antibody))

NKTT120 (human (humanized antibody)), sequence (heavy, as listed by the source, chain 1 of 2): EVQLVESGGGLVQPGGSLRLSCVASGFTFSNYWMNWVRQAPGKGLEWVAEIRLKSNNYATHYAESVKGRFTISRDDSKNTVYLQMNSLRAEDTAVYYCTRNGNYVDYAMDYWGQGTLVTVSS
NKTT120 (human (humanized antibody)), sequence (light, as listed by the source, chain 2 of 2): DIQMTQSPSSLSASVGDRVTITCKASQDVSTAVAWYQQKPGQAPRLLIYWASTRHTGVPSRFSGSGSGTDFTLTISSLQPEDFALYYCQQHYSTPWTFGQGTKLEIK
FcγRIIIa, sequence (P08637 17-254): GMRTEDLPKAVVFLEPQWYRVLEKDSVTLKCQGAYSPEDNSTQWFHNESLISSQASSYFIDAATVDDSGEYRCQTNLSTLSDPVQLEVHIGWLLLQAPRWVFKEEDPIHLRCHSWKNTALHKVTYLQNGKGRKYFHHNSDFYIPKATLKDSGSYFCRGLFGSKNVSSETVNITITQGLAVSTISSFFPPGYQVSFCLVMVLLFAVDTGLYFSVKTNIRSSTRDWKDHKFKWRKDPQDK
FcγRI, sequence (P12314 16-374): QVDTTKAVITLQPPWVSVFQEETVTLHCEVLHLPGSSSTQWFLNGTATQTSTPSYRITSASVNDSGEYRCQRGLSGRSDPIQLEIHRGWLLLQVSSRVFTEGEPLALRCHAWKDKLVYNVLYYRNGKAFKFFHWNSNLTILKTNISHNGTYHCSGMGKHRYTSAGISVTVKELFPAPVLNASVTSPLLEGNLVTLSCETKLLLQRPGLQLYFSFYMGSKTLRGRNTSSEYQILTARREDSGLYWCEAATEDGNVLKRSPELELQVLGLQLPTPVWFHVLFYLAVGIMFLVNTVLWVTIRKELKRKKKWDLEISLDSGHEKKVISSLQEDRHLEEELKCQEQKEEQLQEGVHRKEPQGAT

Row | Substance | Kd [1] | ADCC, cell killing of iTCR-expressing target cells by CD16-transduced NK-92 effector cells (E:T 60:1), NKTT120 at 1 and 20 µg/ml (34% to 44%) [2]
1 | FcγRI (from UniProt P12314 16-374) (receptor) | 12 nM | 
2 | FcγRIIIa (from UniProt P08637 17-254) (receptor) | 122 nM | 44%
